Laboratory results: patent US7291458B2, “Leptin-mediated gene-induction” (Vlaams Interuniversitair Instituut Voor Biotechnologie VZW, priority 1998, dated 2007)

What was measured:
ob/ob mice = assay: Gene expression in leptin treated ob/ob mice (Northern blot); assay type: in vivo; conditions: 100 μg/mouse intraperitoneally, 5 hours after treatment
Description: Leptin deficient ob/ob mice were left untreated (−) or were treated with leptin (100 μg; +) intraperitoneally. Mice were killed five hours after treatment. Northern blot analysis of MT-II and Fnk in liver and PAP I expression in jejunum is shown. Hybridization with the mouse b-actin probe was used as a control and is shown below. Exposure times to BioMax MS films were 4 hours, 3 days, 4 hours and 8 hours for MT-II, Fnk, PAP I and b-actin respectively.
In order to assess the value of our in vitro model system for obesity, we investigated the regulation by leptin of a subset of the identified genes in vivo. Recombinant human leptin (R&D Systems) was administered intraperitoneally to leptin deficient ob/ob mice in a single dose of 100 μg leptin /mouse. Mice were killed by cervical dislocation 5 hours after treatment and total RNA was isolated from liver and jejunum. Northern blot analysis was performed using respectively MT-II, Fnk and PAP I as probe (FIG. 9).
Specific pathogen-free female C57BL/6J-Lep^ob mice, 9 weeks old at the beginning of the experiment further referred to as ob/ob were obtained from The Jackson Laboratory (Maine, USA). […] The endotoxin content of the antibody was 0.07 ng/mg protein, as assessed by a chromogenic Limulus amebocyte lysate assay (Coatest, Chromogenix, Stockholm, Sweden). […]

PC12-LR8 cells = assay: Northern blot analysis of gene induction in non-differentiated PC12-LR8 cells; assay type: cell-based, rat; conditions: cycloheximide from 30 minutes before induction for 8.5 hours; 24 hours post induction
Description: PC12-LR8 cells were treated with leptin (L), forskolin (F), or a combination of both (F/L) for the indicated length of time. Hybridization with the mouse b-actin probe was used as a control. NI stands for non-induced control cells. Sizes of transcripts are shown on the right. Exposure times to Biomax MS films were 5.5 days for LIP-I and LIP-II, and 1 day for the corresponding b-actin blot, all at −80° C.
FIG. 6A. Induction patterns of Reg I, HIP-I and peripherin after a 12 hours stimulation with forskolin (F), leptin (L), forskolin plus leptin (F/L), hyper-IL-6 (H) or forskolin plus hyper-IL-6 (F/H). Untreated cells were analyzed as a control (NI). Exposure times to BioMax MS films for Reg I, HIP-I and b-actin were 4 days, 5 days and 3 hours, respectively; and in a separate experiment for peripherin and b-actin, 16 hours and 2 days.
FIG. 6B Induction patterns of PAP I, PAP III, MT-II, Fnk, MRF-1, SOCS-3 and STAT-3 after stimulation with leptin (L) or hyper-IL-6 (H), compared to non-treated control cells (NI). In all cases stimulation was for 12 hours, with the exception of PAP III where stimulation was for 24 hours. b-actin hybridization patterns are shown as control. Exposure times to BioMax MS films at −80° C. were 16 hours for PAP I and 1 hour for b-actin; 4 days for PAP III and 1 hour for b-actin; 3 days for MT-II and Fnk, and2 days for b-actin; 3 days for MRF-1, 2.5 days for SOCS-3 and2 days for b-actin; and 16 hours for STAT-3 and 3 hours for b-actin.
FIG. 8A. Northern blot analysis of the immediate early response genes. PC12-LR8 cells were left untreated (NI: non induced), or were treated with forskolin (F), leptin (L) or a combination of both (F/L) for the indicated time points. Exposure times to BioMax MS films for the different transcripts were Fnk: 6 days, MT-II: 5 days, MRF-1: 6 days, SOCS-3: 14 hours, STAT-3: 14 hours, b-actin: 5 hours.
FIG. 8B. Immediate early response gene-set: early kinetics. PC12-LR8 cells were treated with leptin alone (L) or with a combination of leptin and forskolin (F/L) for the indicated length of time. Exposure time to BioMax MS films were: Fnk: 3 days, MT-II: 3 days, MRF-1: 3 days, SOCS-3: 2.5 days, STAT-3: 2.5 days, b-actin: 1 hour.
FIG. 8C. Northern blot analysis of the late target genes. PC12-LR8 cells were left untreated (NI), or were treated with forskolin (F), leptin (L) or a combination of both (F/L) for the indicated length of time. Exposure times to BioMax MS films were: Ann VIII: 6 days, PAP I: 14 hours, Squalene Epoxidase: 5 days, UGT: 5 days, b-actin: 14 hours.
PC12 cells were cultured in RPMI 1640 medium with glutamax-I (GibcoBRL) containing 10% heat-inactivated foetal calf serum (iFCS) and gentamycin (50 μg/ml). The cells were treated with medium alone or supplemented with 100 ng/ml of mouse leptin (R&D Systems), with forskolin (Sigma) at a concentration of 10 μM or with a combination both, unless otherwise indicated.
Total RNA was prepared from PC12 cells using RNeasy™ method (Qiagen). RNA (10 μg) was separated on a 1.5% agarose,6% formaldehyde gel, transferred to a nylon membrane (Zeta-Probe GT Genomic, Bio-Rad), and cross-linked using UV radiation. The filters were hybridized for one hour at 68° C. in ExpressHyb™ solution (Clontech) with [^32P]dCTP-labeled DNA-probes and washed 3 times with 2×SSC, 0.05% SDS at room temperature and twice in 0.1×SSC, 0.1% SDS at 50° C. Autoradiographs were obtained by exposing the blots to BioMax MS film (Kodak) with intensifying screens at −70° C. All Northern blots were normalized by hybridization using a b-actin probe.

[1] = test system: rat Pancreatitis Associated Protein I promoter; assay: pGL3-rPAPluc reporter in PC12-LR8 cells; assay type: cell-based; conditions: rPAP I reporter
Description: (§1) FIGS. 1C and 1D. Analysis of b-NGF and forskolin co-stimulation on leptin-induced POMC luciferase (C) or rPAP luciferase activity (D). PC12-LR8 cells were transiently transfected with pGL3-hPOMCluc or pGL3-rPAPluc reporter and treated after two days with forskolin (F: 10 μM), leptin (L: 100 ng/ml), and rat b-NGF (N: 1 ng/ml) as indicated or were left untreated (NI). 24 hours after treatment, cells were lysed and assayed for luciferase activity.
(§2) Leptin responsiveness in PC12 cells was further investigated using a clone stably expressing the long isoform of the mouse leptin receptor (PC12-LR8, see below). After transfection of PC12-LR8 with a reporter construct based on the human POMC (proopiomelanocortin) promoter (pGL3-POMCluc) (FIG. 1 portion C), or a reporter construct based on the rat Pancreatitis Associated Protein I promoter (See below) (FIG. 1 portion D), leptin induced luciferase activity was measured. […]
(§3) Luciferase activity was measured in transfected cells by chemiluminescence. […] 70 μl of luciferase substrate buffer (20 mM Tricine; 1.07 mM (MgCO3)4Mg(OH)25H2O; 2.67 mM MgSO4; 0.1 mM EDTA; 33.3 mM DTT; 270 μM Coenzyme A (lithium salt); 470 μM Luciferin (Duchefa); 530 μM ATP, final pH 7.8) was added to 100 μl of cell lysate and measured for 5 seconds by TopCount.NXT Chemiluminescence Counter (Packard).

[2] = test system: human POMC (proopiomelanocortin) promoter; assay: pGL3-POMCluc reporter in PC12-LR8 cells; assay type: cell-based, rat
Description: as §1, §2, §3

Molecule: Recombinant human leptin: Recombinant human leptin (R&D Systems) administered intraperitoneally to mice
- MT-II and Fnk mRNA expression in liver (ob/ob mice): clear induction
- expression of PAP I in jejunum (ob/ob mice): downregulated

Molecule: C[C@@H]1C[C@@H]([C@H](O)CC2CC(=O)NC(=O)C2)C(=O)[C@@H](C)C1 [cycloheximide, reference compound]
- rPAP I and Annexin VIII mRNA expression (PC12-LR8 cells): strongly reduced expression

B1: b-NGF: recombinant rat b-nerve growth factor (protein, UniProt P25427 122-241, looked up)
Beta-nerve growth factor: SSTHPVFHMGEFSVCDSVSVWVGDKTTATDIKGKEVTVLGEVNINNSVFKQYFFETKCRAPNPVESGCRGIDSKHWNSYCTTTHTFVKALTTDDKQAAWRFIRIDTACVCVLSRKAARRG
- co-stimulation of leptin induced luciferase activity ([1]; b-NGF 1 ng/ml): mimicked
- combined b-NGF and forskolin effects on leptin induced luciferase activity [1]: additive
- combined b-NGF and forskolin effects on leptin induced luciferase activity [2]: additive
- co-stimulation of leptin induced luciferase activity ([2]; b-NGF 1 ng/ml): mimicked
